Here are results for eleven molecules from patent publication US20160068605A1 (Janssen / Centocor, published 2016).

“And” between values parts separate entries of the source, which are not always exact repeats. Equal values may be shown once.

Assay [1] concerns the target T1, cyno CD123 ECD displayed on pDisplay-transfected cells (cynomolgus monkey).
T1 construct: ECD anchored on the surface of stably transfected HEK293 cells; also called cynoCD123 SP1 cells; cynoCD123 cells
T1 chain: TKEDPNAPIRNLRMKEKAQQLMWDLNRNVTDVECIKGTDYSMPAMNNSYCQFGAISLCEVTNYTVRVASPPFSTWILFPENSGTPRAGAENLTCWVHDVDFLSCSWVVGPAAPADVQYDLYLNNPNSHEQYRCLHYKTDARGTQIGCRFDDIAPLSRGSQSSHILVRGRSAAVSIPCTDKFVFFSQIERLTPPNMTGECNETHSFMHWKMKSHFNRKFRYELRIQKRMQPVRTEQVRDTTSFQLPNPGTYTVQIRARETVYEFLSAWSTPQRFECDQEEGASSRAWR
The assay can be described thus: MSD cell binding on 293F pDisplay cells; fold change over background; parental 293F cells as control. Here is the method:
The object of the screening assay was to identify antibodies that bound to cells expressing hCD123 SP1 and SP2 as well as cross reactivity with cells expressing cynoCD123 SP1.
Cells were immobilized and phages were assayed in triplicate. […] 5000 cells per well were plated into a 384 well plate (MA6000, cat. L21XB, MSD) and allowed to adhere for 2 hr. Cells were then blocked with 20% FBS in PBS (Gibco) for 15 mins. Antibody supernatants were then added and left at RT for 1 hr. Cells were washed 3 times with PBS and a ruthenium labeled secondary antibody (Jackson Immuno Research) was then added at 1 μg/mL and incubated for 1 hr at room temperature. A further washing step was then applied and 35 μL per well of MSD Read buffer T (surfactant free) was then added and incubated for 30 min for detection. Plates were then read using Sector Imager 2400 (MSD). Data was normalized to controls and graphed using GraphPad Prism Version 5. A positive binder was determined to be a hit with a signal 3× greater than background (FIGS. 2A, B and C).

In assay [2] the target is T2, Recombinant human CD123 SP2 ECD protein (human, UniProt P26951 101-303).
T2 construct: also called rhCD123 SP2; CD123 ECD SP2
T2 sequence: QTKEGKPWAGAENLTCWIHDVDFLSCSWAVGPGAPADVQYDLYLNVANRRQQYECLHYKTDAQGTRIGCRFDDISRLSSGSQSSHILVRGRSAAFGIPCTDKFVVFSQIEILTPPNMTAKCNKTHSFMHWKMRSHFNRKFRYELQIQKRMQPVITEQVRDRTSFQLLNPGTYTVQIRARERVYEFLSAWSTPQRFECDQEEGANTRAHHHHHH
The experiment in a line: SPR ProteOn, captured mAb. Here is the method: (§1) The biosensor surface was prepared by covalently coupling Goat anti-Human IgG (Fc) to the surface of a GLC chip (BioRad) using the manufacturer instructions for amine-coupling chemistry. […] The RU immobilized also included a goat anti-mouse Fc antibody that was added to capture other antibodies not included in the ones reported here. Since the mixture was 1:1 about 50% of these RU immobilized are expected to be goat anti-human Fc. The kinetic experiments were performed at 25° C. in running buffer (PBS pH 7.4, 0.005% P20, 3 mM EDTA). […] The reference spots (Goat anti-Human IgG (Fc)-modified surface) containing no candidate captured were used as a reference surface. Capture of mAb was followed by 3 min injection (association phase) of antigen at 40 μL/min, followed by 10 min of buffer flow (dissociation phase). […] Data was processed on the instrument software. Double reference subtraction of the data was performed by subtracting the curves generated by buffer injection from the reference-subtracted curves for analyte injections. Kinetic analysis of the data was performed using 1:1 Langmuir binding model with group fit. The result for each mAb was reported in the format of Kₐ (kon or on-rate), Kd (koff or off-rate), KD (Equilibrium dissociation constant) (Table 5).

For assay [3], the target named is T3, Recombinant human CD123 SP1 ECD-His tag protein (human, UniProt P26951 20-305).
T3 construct: bought from R&D Systems (#301-R3/CF); biotinylated for some assays; also called rhCD123 SP1; huCD123 ECD SP1
T3 sequence: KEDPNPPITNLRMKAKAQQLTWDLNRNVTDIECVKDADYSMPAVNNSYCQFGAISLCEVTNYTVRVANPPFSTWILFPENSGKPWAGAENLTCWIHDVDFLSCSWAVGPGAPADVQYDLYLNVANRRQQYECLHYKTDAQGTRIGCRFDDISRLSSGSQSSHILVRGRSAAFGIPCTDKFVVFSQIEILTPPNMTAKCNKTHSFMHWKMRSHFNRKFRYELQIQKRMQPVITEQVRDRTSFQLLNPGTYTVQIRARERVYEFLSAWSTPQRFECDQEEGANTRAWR
The assay can be described thus: SPR ProteOn, captured mAb. Here is the method:
as §1

Assay [4] has as its target T4, cell-surface CD3 epsilon on primary human T cells (human, UniProt P07766 23-207).
T4 construct: whole, on cells; part of the CD3/TCR complex on the cells
The experiment in a line: flow cytometry competition with labeled CD3B146 on T cells. An excerpt: (§2) The format involved competition binding using a fixed concentration of labeled anti-CD3 mAb of known affinity and increasing concentrations of unlabeled test Abs (Ashkenazi A et al. PNAS: 88:10535, 1991.).
On the technique in general: In flow cytometry, cells or beads pass a laser one at a time.

The target in assay [5] is T5, cell-surface CD3 epsilon on primary cynomolgus T cells (cynomolgus monkey, UniProt Q95LI5 22-198).
T5 construct: whole, on cells; also called cynomolgus CD3e; Cyno T-cells
The assay is described as above.
Text: as §2

T4 sequence (P07766 23-207): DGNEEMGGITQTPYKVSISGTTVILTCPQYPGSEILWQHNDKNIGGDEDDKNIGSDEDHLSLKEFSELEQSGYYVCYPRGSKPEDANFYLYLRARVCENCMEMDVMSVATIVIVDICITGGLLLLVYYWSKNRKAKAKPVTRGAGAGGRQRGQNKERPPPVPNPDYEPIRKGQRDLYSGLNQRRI
T5 sequence (Q95LI5 22-198): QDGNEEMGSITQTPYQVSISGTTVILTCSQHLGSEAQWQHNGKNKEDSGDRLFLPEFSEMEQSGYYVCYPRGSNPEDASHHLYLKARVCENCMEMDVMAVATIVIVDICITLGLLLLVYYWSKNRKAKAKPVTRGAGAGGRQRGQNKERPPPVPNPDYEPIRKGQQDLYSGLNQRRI

B1: I3RB19 (antibody, IgG1, V domains shown)
VH: EVQLLESGGGLVQPGGSLRLSCAASGFTFSNYAMSWVRQAPGKGLEWVSGIRGNGSSTYYADSVKGRFTISRDNSKNTLYLQMNSLRAEDTAVYYCAKGGPIGARFPDYLDYWGQGTLVTVSS
VL: DIQMTQSPSSLSASVGDRVTITCRASQSIGDFLNWYQQKPGKAPKLLIYYASSLQSGVPSRFSGSGSGTDFTLTISSLQPEDFATYYCQQSYSTPLTFGQGTKVEIK
notes: IgG1; also called 13RB19
For B1, in assay [1], the binding result was “no binding (tested: 10 µg/mL)”. For the same molecule, in assay [2], the Kd was determined as 48.3 nM, the off-rate (koff) is 0.0161 s⁻¹ and the kon was found to be 334000 M⁻¹ s⁻¹. In addition, in assay [3], the Kd was 119 nM, the koff was 0.0251 s⁻¹ and the kon turned out to be 211000 M⁻¹ s⁻¹.

B2: I3RB33 (antibody, IgG1, V domains shown)
VH: QVQLVQSGAEVKKPGSSVKVSCKASGGTFSSYGISWVRQAPGQGLEWMGGIIPIFGTANYAQKFQGRVTITADESTSTAYMELSSLRSEDTAVYYCARGYWHWNYDYLDYWGQGTLVTVSS
VL: EIVLTQSPATLSLSPGERATLSCRASQSVNDWLAWYQQKPGQAPRLLIYGASNRATGIPARFSGSGSGTDFTLTISSLEPEDFAVYYCQQYKRAPYTFGQGTKVEIK
notes: IgG1
As to B2, the binding result in assay [1] is “binds”. Moreover, the binding result in assay [2] is recorded as “no binding (tested: 400 nM)”. Further, in assay [3], the Kd stood at 4.23 nM, the koff was 0.00177 s⁻¹ and the on-rate constant (kon) came to 417000 M⁻¹ s⁻¹.

B3: I3RB40 (antibody, IgG1, V domains shown)
VH: QVQLVQSGAEVKKPGSSVKVSCKASGGTFSSYAISWVRQAPGQGLEWMGGIIPIFGTANYAQKFQGRVTITADESTSTAYMELSSLRSEDTAVYYCARGQWWADTWFDYWGQGTLVTVSS
VL: EIVLTQSPATLSLSPGERATLSCRASQSVAKWLAWYQQKPGQAPRLLIYGASNRATGIPARFSGSGSGTDFTLTISSLEPEDFAVYYCQQYHTAPWTFGQGTKVEIK
notes: IgG1
In the case of B3, in assay [1], the binding result is given as “no binding (tested: 10 µg/mL)”. The binding result in assay [2] was “no binding (tested: 400 nM)”. In addition, in assay [3], the Kd stood at 6.02 nM, the koff stood at 0.00346 s⁻¹ and the association rate constant (kon) amounted to 574000 M⁻¹ s⁻¹.

B4: I3RB30 (antibody, IgG1, V domains shown)
VH: QVQLVQSGAEVKKPGSSVKVSCKASGGTFSSYAISWVRQAPGQGLEWMGWIIPIFGTANYAQKFQGRVTITADESTSTAYMELSSLRSEDTAVYYCARLVYSSDFDYWGQGTLVTVSS
VL: EIVLTQSPATLSLSPGERATLSCRASQSVANWLAWYQQKPGQAPRLLIYYASNRATGIPARFSGSGSGTDFTLTISSLEPEDFAVYYCQQYDGWPRTFGQGTKVEIK
notes: IgG1; also called 13RB30
Turning to B4, the binding result in assay [1] is given as “no binding (tested: 10 µg/mL)”. Besides, in assay [2], the Kd is 330 nM, the off-rate (koff) was determined as 0.048 s⁻¹ and the kon came to 145000 M⁻¹ s⁻¹. Further, in assay [3], the Kd was found to be 4.17 nM, the koff was found to be 0.00302 s⁻¹ and the kon stood at 725000 M⁻¹ s⁻¹.

B5: I3RB20 (antibody, IgG1, V domains shown)
VH: QVQLVQSGAEVKKPGSSVKVSCKASGGTFSSYAISWVRQAPGQGLEWMGGIIPIFGTANYAQKFQGRVTITADESTSTAYMELSSLRSEDTAVYYCARDDQIWGSYHLDYWGQGTLVTVSS
VL: not shown
notes: IgG1
B5: in assay [3], the Kd is 1.68 nM, the koff turned out to be 0.00106 s⁻¹ and the kon amounted to 631000 M⁻¹ s⁻¹.

B6: I3RB36 (antibody, IgG1, V domains shown)
VH: QVQLVQSGAEVKKPGSSVKVSCKASGGTFSSYGISWVRQAPGQGLEWMGGIIPIFGTANYAQKFQGRVTITADESTSTAYMELSSLRSEDTAVYYCARDLHVWAYSNFDYWGQGTLVTVSS
VL: not shown
notes: IgG1
As to B6, the binding result in assay [2] is given as “no binding (tested: 400 nM)”. Besides, in assay [3], the Kd was 2.47 nM, the koff came to 0.00166 s⁻¹ and the kon came to 675000 M⁻¹ s⁻¹.

B7: CD123 null 2 (bispecific antibody, human IgG4 S228P, lambda, F234A L235A)
heavy: EVQLLESGGGLVQPGGSLRLSCAASGFTFNTYAMNWVRQAPGKGLEWVARIRSKYNNYATYYADSVKGRFTISRDNSKNTLYLQMNSLRAEDTAVYYCVKHGNFGNSYVSWFAYWGQGTLVTVSSASTKGPSVFPLAPCSRSTSESTAALGCLVKDYFPEPVTVSWNSGALTSGVHTFPAVLQSSGLYSLSSVVTVPSSSLGTKTYTCNVDHKPSNTKVDKRVESKYGPPCPPCPAPEAAGGPSVFLFPPKPKDTLMISRTPEVTCVVVDVSQEDPEVQFNWYVDGVEVHNAKTKPREEQFNSTYRVVSVLTVLHQDWLNGKEYKCKVSNKGLPSSIEKTISKAKGQPREPQVYTLPPSQEEMTKNQVSLTCLVKGFYPSDIAVEWESNGQPENNYKTTPPVLDSDGSFLLYSKLTVDKSRWQEGNVFSCSVMHEALHNHYTQKSLSLSLGK
light: QAVVTQEPSLTVSPGGTVTLTCRSSTGAVTTSNYANWVQQKPGQAPRGLIGGTNKRAPGTPARFSGSLLGGKAALTLSGAQPEDEAEYYCALWYSNLWVFGGGTKLTVLGQPKAAPSVTLFPPSSEELQANKATLVCLISDFYPGAVTVAWKADSSPVKAGVETTTPSKQSNNKYAASSYLSLTPEQWKSHRSYSCQVTHEGSTVEKTVAPTECS
VH: not shown
VL: not shown
notes: also called B21M IgG4 x CD3B217
As for B7, the Kd in assay [4] is 266 nM; in assay [5] it was 217 nM.

B8: I3RB1 (antibody, IgG1, V domains shown)
VH: EVQLLESGGGLVQPGGSLRLSCAASGFTFSDYGMSWVRQAPGKGLEWVSVIRGGGSSKYYADSVKGRFTISRDNSKNTLYLQMNSLRAEDTAVYYCAKHSGSFRFNELDYWGQGTLVTVSS
VL: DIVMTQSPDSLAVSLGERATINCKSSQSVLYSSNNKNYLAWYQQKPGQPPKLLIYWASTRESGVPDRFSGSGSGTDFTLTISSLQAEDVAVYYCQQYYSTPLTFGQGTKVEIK
notes: IgG1; also called I3RB01
As for B8, the binding result in assay [1] was “no binding (tested: 10 µg/mL)”.

B9: I3RB16 (antibody, IgG1, V domains shown)
VH: QVQLVQSGAEVKKPGSSVKVSCKASGGTFSSYAISWVRQAPGQGLEWMGGIIPIFGTANYAQKFQGRVTITADESTSTAYMELSSLRSEDTAVYYCARGAVWGDQWFDYWGQGTLVTVSS
VL: not shown
notes: IgG1
As to B9, the binding result in assay [1] is “no binding (tested: 10 µg/mL)”.

B10: I3RB5 (antibody, IgG1, V domains shown)
VH: EVQLLESGGGLVQPGGSLRLSCAASGFTFSGYWMSWVRQAPGKGLEWVSGINYDGGSTYYADSVKGRFTISRDNSKNTLYLQMNSLRAEDTAVYYCAKDHFLAEFDYWGQGTLVTVSS
VL: not shown
notes: IgG1; also called I3RB05
Regarding B10, the Kd in assay [2] was 4.88 nM and 4.09 nM; in assay [3], 12.8 nM and 12.9 nM.

B11: CD3B146 (antibody, IgG1, V domains shown)
VH: EVQLVESGGGLVQPGGSLRLSCAASGFTFNTYAMNWVRQAPGKGLEWVARIRSKYNNYATYYAASVKGRFTISRDDSKNSLYLQMNSLKTEDTAVYYCARHGNFGNSYVSWFAYWGQGTLVTVSS
VL: QTVVTQEPSLTVSPGGTVTLTCRSSTGAVTTSNYANWVQQKPGQAPRGLIGGTNKRAPGTPARFSGSLLGGKAALTLSGVQPEDEAEYYCALWYSNLWVFGGGTKLTVL
notes: IgG1 constant region with L234A, L235A, F405L; human lambda constant region; also called CD3B146 hu IgG1-AlaAla F405L
As for B11, the Kd worked out at 3.2 nM in assay [4] and 1.1 nM in assay [5].

By Kd is commonly meant the constant that tells how readily two partners part at equilibrium. What is called koff is a measure of how fast the partners let go of each other. As usually defined, the kon is a measure of how fast the partners come together.
